According to publication doi:10.1101/2024.12.02.626503 (bioRxiv, 2024):
The star is where a group is joined. 5‑TAMRA = CN(C)c1ccc2c(-c3ccc(C(=O)*)cc3C(=O)[O-])c3ccc(N(C)C)cc3[o+]c2c1

B1: 5-TAMRA-labeled CaV1.3 IQ peptide (peptide)
peptide: not shown
modifications: 5-TAMRA on the N-terminus; C-terminal amide (NH2)
B2: 5-TAMRA-labeled CaV2.1 IQ peptide (peptide)
peptide: {5‑TAMRA}-TDLTVGKIYAAMMIMEYYRQSKAKKLQAMREEQD-NH2
SMILES: CC[C@H](C)[C@H](NC(=O)[C@H](CCCCN)NC(=O)CNC(=O)[C@@H](NC(=O)[C@@H](NC(=O)[C@H](CC(C)C)NC(=O)[C@H](CC(=O)O)NC(=O)[C@@H](NC(=O)c1ccc(-c2c3ccc(N(C)C)cc3[o+]c3cc(N(C)C)ccc23)c(C(=O)[O-])c1)[C@@H](C)O)[C@@H](C)O)C(C)C)C(=O)N[C@@H](Cc1ccc(O)cc1)C(=O)N[C@@H](C)C(=O)N[C@@H](C)C(=O)N[C@@H](CCSC)C(=O)N[C@@H](CCSC)C(=O)N[C@H](C(=O)N[C@@H](CCSC)C(=O)N[C@@H](CCC(=O)O)C(=O)N[C@@H](Cc1ccc(O)cc1)C(=O)N[C@@H](Cc1ccc(O)cc1)C(=O)N[C@@H](CCCNC(=N)N)C(=O)N[C@@H](CCC(N)=O)C(=O)N[C@@H](CO)C(=O)N[C@@H](CCCCN)C(=O)N[C@@H](C)C(=O)N[C@@H](CCCCN)C(=O)N[C@@H](CCCCN)C(=O)N[C@@H](CC(C)C)C(=O)N[C@@H](CCC(N)=O)C(=O)N[C@@H](C)C(=O)N[C@@H](CCSC)C(=O)N[C@@H](CCCNC(=N)N)C(=O)N[C@@H](CCC(=O)O)C(=O)N[C@@H](CCC(=O)O)C(=O)N[C@@H](CCC(N)=O)C(=O)N[C@@H](CC(=O)O)C(N)=O)[C@@H](C)CC

Molecular target: CaM WT (UniProt P0DP23 1-149)
Experiment: fluorescence polarisation

Row | Binder | binding result
1 | B1 | binds
2 | B2 | binds
